Data as given in US20210253666A1 (TCR2 THERAPEUTICS, published 2021).
Numbering of substitutions follows the chain as printed.

B1: Single domain anti-MUC16 R3MU63 (VHH)
VHH: QVQLQESGGGLVQAGDSLRLSCAASGRTVSSLFMGWFRRAPGKERELVAAISRYSLYTYYADSVKGRFTISADNAKNAVYLQMNSLKPEDTAVYYCASKLEYTSNDYDSWGQGTQVTVSS
notes: Tested as soluble nanobody in crude periplasmic extract; not shown: C-terminal HA tag and His6 tag of the pMECS GG vector
B2: Single domain anti-MUC16 R3MU147 (VHH)
VHH: B1 VHH with D16E
notes: as for B1
B3: Single domain anti-MUC16 R3MU29 (VHH)
VHH: B1 VHH with T28A
notes: as for B1
B4: Single domain anti-MUC16 R3MU150 (VHH)
VHH: B1 VHH with A14P, D16G
notes: as for B1
B5: single domain anti-MUC16 binder R3MU4 (VHH)
VHH: B1 VHH with D16G, R39Q
notes: as for B1
B6: Single domain anti-MUC16 R3MU119 (VHH)
VHH: QVQLQESGGGLVQPGDSMRLSCAAEGDSLDGYVVGWFRQAPGKERQGVSSISGDGSMRYVADSVKGRFTISRDNAKNTVYLQMIDLKPEDTGVYYCAADPPTWDYWGQGTQVTVSS
notes: as for B1

Molecular target: T1, hMUC16 peptide biotinylated either at C- or N-terminus (bio-hMUC16) (human, biotin at C- or N-terminus)
T1 construct: Captured on streptavidin-coated plates for panning and ELISA screening; also called human MUC16 peptide; MUC16 immunization peptide
T1 peptide: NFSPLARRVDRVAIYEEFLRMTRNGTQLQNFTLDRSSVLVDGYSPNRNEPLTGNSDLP
Test: ELISA, crude periplasmic extracts on biotinylated hMUC16 peptide captured on streptavidin-coated wells
Experimental: The Core 93GG library was panned on hMUC16 peptide […] (SEQ ID NO:92) biotinylated either at C- or N-terminus (bio-hMUC16) for 4 rounds. The bio-hMUC16 peptide was allowed to interact with streptavidin coated plates after which phages from the library were added to the plate. The enrichment for antigen-specific phages was assessed after each round of panning by comparing the number of phagemid particles eluted from antigen-coated wells with the number of phagemid particles eluted from negative control wells (coated with streptavidin and blocked but containing no peptide). […] No enrichment was observed after the 1st, 3rd and 4th round. In total, 380 colonies (190 from round 3, 190 from round 4) were randomly selected and analyzed by ELISA for the presence of antigen-specific nanobodies in their periplasmic extracts (ELISA using crude periplasmic extracts including soluble nanobodies). The peptides used for ELISA screening were the same as the ones used for panning, using blocked streptavidin-coated wells without peptide as negative control. Out of these 380 colonies, 34 colonies scored positive in this assay. Based on sequence data of the positive colonies, 6 different full length nanobodies were distinguished, belonging to 2 different CDR3 groups (B-cell lineages) (see Excel file). […] Nanobodies belonging to the same CDR3 group recognize the same epitope but their other characteristics (e.g. affinity, potency, stability, expression yield, etc.) can be different. Clones from these pannings bear the following code in their name: MU.

Binding result, binds:
B1
B2
B3
B4
B5
B6
